{
  "source": "paper PMC2120550",
  "target": "lysin from the pink abalone (H. corrugata) (Haliotis corrugata (pink abalone))",
  "assay": "cross-linking",
  "data": [
    {"substance": "lysin from the pink abalone (H. corrugata) (natural protein)", "values": [
      {"measurement": "stoichiometry N", "result": 2}
    ]}
  ]
}
